Results as given in patent US20260258155A1 (TRIVENI BIO, published 2026).
Numbering of substitutions follows the chain as printed.

Key:
[1] = target: T1, mouse KLK7 (mKLK7) (mouse, UniProt Q91VE3 26-249); assay: Biacore SPR, antibody captured on Protein A chip, single-cycle kinetics, 25 C
T1 construct: Enzymatically active in the protease assay
Experimental: (§1) All screening assays were performed at 25 C. The running buffer used was 20 mM HEPES, 300 mM NaCl, 0.01% Tween-20, pH 7.5. Antibodies (1 ug/mL) were captured on Fc2-4 of a Series S ProteinA Sensor Chip (Cytiva) flowing at 10 ul/mL for 30 s. Kinetics measurements were made in single-cycle kinetics mode with a series of 4-5 concentrations with top concentration of 25-100 nM and serial dilution 4-fold. Contact time was typically 300 s and dissociation time ranged from 1800-3600 s. Flow rate of 30 ul/mL was typically used. The sensor chip was regenerated with 10 mM glycine, pH 1.5 with a contact time of 30 s flowing at 50 ul/mL.

[2] = target: human KLK7 (hKLK7), active form (human, UniProt P49862 30-253); assay: cell-based or functional assay
[3] = target: T1, mouse KLK7 (mKLK7); assay: cell-based or functional assay
[4] = target: human KLK5 (hKLK5), active form (human, UniProt Q9Y337 67-293); assay: cell-based or functional assay
[5] = target: mouse KLK5 (mKLK5) (mouse); assay: cell-based or functional assay
[6] = target: T2, mouse KLK5 (mKLK5) (mouse); assay: Biacore SPR, antibody captured on Protein A chip, single-cycle kinetics, 25 C
T2 construct: Enzymatically active in the protease assay
Experimental: as §1

Sequence of human KLK7 (hKLK7), active form (P49862 30-253): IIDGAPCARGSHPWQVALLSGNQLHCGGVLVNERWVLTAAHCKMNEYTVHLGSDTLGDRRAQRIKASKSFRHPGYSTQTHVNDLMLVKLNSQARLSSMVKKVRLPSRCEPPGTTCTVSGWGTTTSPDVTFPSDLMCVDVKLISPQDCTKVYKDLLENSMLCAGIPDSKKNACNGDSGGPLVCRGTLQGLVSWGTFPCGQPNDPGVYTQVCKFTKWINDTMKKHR
T1 sequence (Q91VE3 26-249 limits assumed): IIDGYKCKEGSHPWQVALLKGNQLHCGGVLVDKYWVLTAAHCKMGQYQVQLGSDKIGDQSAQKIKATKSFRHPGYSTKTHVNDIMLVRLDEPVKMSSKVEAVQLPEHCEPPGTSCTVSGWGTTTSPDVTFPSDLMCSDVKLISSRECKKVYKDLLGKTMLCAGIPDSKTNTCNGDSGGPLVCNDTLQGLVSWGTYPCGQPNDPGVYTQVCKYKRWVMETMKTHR

B1: KLK7-L4-Ab2 (antibody, V domains shown)
VH: QLQLQESGPGLVKPSETLSLTCTVSGGSISSSPYNWVWIRQPPGKGLEWIGSILHSGSTYYNPSLKSRVTISVDTSKNQFSLKLSSVTAADTAVYYCARGVPTYWGAASHYYYYMDVWGKGTTVTVSS
VL: DIQMTQSPSTLSASVGDRVTITCRASQSISSWLAWYQQKPGKAPKLLIYKASSLESGVPSRFSGSGSGTEFTLTISSLQPDDFATYYCEQYGSESPLTFGGGTKVEIK
Kd [1]: 0.0266 nM
hKLK7 IC50 (protease inhibition) [2]: 1.42 nM
hKLK7 IC90 (protease inhibition) [2]: 6.34 nM
mKLK7 IC50 (protease inhibition) [3]: 2.42 nM
mKLK7 IC90 (protease inhibition) [3]: 9.04 nM

B2: KLK7-L2-Ab2 (antibody, V domains shown)
VH: QVQLQESGPGLVKPSQTLSLTCTVSGGSISSGGYYWHWIRQHPGKGLEWIGYIYRSGYTYYNPSLKSRVTISVDTSKNQFSLKLSSVTAADTAVYYCARAKQLTTHRYFDYWGQGTLVTVSS
VL: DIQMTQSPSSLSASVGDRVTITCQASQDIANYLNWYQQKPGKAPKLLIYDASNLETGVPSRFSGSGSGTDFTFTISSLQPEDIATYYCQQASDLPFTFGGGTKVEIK
Kd [1]: 0.0357 nM
mKLK7 IC50 (protease inhibition) [3]: 2.31 nM
mKLK7 IC90 (protease inhibition) [3]: 6.01 nM

B3: KLK7-L2-Ab3 (antibody, V domains shown)
VH: B2 VH with Y35S, H37N, Y52S, Y58S, Q102A, F109V
VL: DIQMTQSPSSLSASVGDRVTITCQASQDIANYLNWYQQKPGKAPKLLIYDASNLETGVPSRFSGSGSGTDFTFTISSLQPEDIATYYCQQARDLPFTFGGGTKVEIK
hKLK7 IC50 (protease inhibition) [2]: 0.833 nM
hKLK7 IC90 (protease inhibition) [2]: 3.39 nM
mKLK7 IC50 (protease inhibition) [3]: 1.49 nM
mKLK7 IC90 (protease inhibition) [3]: 4.88 nM

B4: KLK7-L2-Ab4 (antibody, V domains shown)
VH: B2 VH with Y35S, H37N, Y52S, Y58S, T105L, H106T
VL: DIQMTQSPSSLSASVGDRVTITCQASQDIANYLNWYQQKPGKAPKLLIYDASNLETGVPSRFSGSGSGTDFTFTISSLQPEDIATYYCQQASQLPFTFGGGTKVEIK
Kd [1]: 0.0101 nM
mKLK7 IC50 (protease inhibition) [3]: 1.63 nM
mKLK7 IC90 (protease inhibition) [3]: 6.51 nM

B5: KLK7-L2-Ab1 (antibody, V domains shown)
VH: B2 VH with H37S, Y52S, R55Y, Y58S
VL: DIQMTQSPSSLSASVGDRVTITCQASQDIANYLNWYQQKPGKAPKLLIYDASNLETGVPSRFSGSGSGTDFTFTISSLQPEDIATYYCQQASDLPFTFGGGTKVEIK
Kd [1]: 0.0796 nM
mKLK7 IC90 (protease inhibition) [3]: 5.63 nM

B6: KLK7-L2-Ab5 (antibody, V domains shown)
VH: B2 VH with H106S
VL: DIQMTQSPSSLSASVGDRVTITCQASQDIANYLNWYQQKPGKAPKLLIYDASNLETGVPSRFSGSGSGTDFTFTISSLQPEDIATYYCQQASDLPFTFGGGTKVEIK
Kd [1]: 0.018 nM
mKLK7 IC50 (protease inhibition) [3]: 1.91 nM
mKLK7 IC90 (protease inhibition) [3]: 6.52 nM

B7: KLK7-L1-Ab4 (antibody, V domains shown)
VH: QVQLVQSGAEVKKPGASVKVSCKASGYTFTSEGIHWVRQAPGQGLEWMGSISASSGDTNYAQKLQGRVTMTTDTSTSTAYMELRSLRSDDTAVYYCARAAGYGARHWYFDLWGQGTMVTVSS
VL: DIQMTQSPSSLSASVGDRVTITCRASQSISSYLNWYQQKPGKAPKLLIYGASSLQSGVPSRFSGSGSGTDFTLTISSLQPEDFATYYCDQFYSTPPITFGGGTKVEIK
Kd [1]: 0.0107 nM
hKLK7 IC50 (protease inhibition) [2]: 0.914 nM
hKLK7 IC90 (protease inhibition) [2]: 3.67 nM
mKLK7 IC50 (protease inhibition) [3]: 1.42 nM
mKLK7 IC90 (protease inhibition) [3]: 7.12 nM

B8: KLK7-L1-Ab3 (antibody, V domains shown)
VH: B7 VH with K63E
VL: B7 VL
Kd [1]: 0.0402 nM
hKLK7 IC50 (protease inhibition) [2]: 1.2 nM
hKLK7 IC90 (protease inhibition) [2]: 5.03 nM
mKLK7 IC50 (protease inhibition) [3]: 1.46 nM
mKLK7 IC90 (protease inhibition) [3]: 6.45 nM

B9: KLK7-L1-Ab6 (antibody, V domains shown)
VH: B7 VH with H106S
VL: B7 VL
Kd [1]: 0.0144 nM
mKLK7 IC50 (protease inhibition) [3]: 1.25 nM
mKLK7 IC90 (protease inhibition) [3]: 4.58 nM

B10: KLK7-L1-Ab5 (antibody, V domains shown)
VH: B7 VH
VL: B7 VL with F91W
Kd [1]: 0.017 nM
hKLK7 IC50 (protease inhibition) [2]: 1.23 nM
hKLK7 IC90 (protease inhibition) [2]: 4.66 nM
mKLK7 IC50 (protease inhibition) [3]: 1.35 nM
mKLK7 IC90 (protease inhibition) [3]: 7.25 nM

B11: KLK7-L1-Ab7 (antibody, V domains shown)
VH: B7 VH with A99G, H106D
VL: B7 VL with F91R
Kd [1]: 0.0302 nM
mKLK7 IC50 (protease inhibition) [3]: 1.06 nM
mKLK7 IC90 (protease inhibition) [3]: 5.03 nM

B12: KLK7-L1-Ab1 (antibody, V domains shown)
VH: B7 VH with A16S, Y27G, T30S, S31N, E32Y, G33A, H35S, S50W, S54Y
VL: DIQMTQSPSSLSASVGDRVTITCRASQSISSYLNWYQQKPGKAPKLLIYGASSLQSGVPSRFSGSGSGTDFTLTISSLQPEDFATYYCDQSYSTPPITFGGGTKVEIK
Kd [1]: 1.62 nM
mKLK7 IC50 (protease inhibition) [3]: 0.5 nM
mKLK7 IC90 (protease inhibition) [3]: 108 nM

B13: KLK7-L1-Ab2 (antibody, V domains shown)
VH: B7 VH with T30G, S31P, E32Y, H35S, S50W, S54Y, H106W
VL: B7 VL with Q90G, F91S
Kd [1]: 0.0354 nM
hKLK7 IC50 (protease inhibition) [2]: 1.69 nM
hKLK7 IC90 (protease inhibition) [2]: 6.11 nM
mKLK7 IC50 (protease inhibition) [3]: 3.42 nM
mKLK7 IC90 (protease inhibition) [3]: 19.8 nM

B14: KLK5-L1-Ab3 (antibody, V domains shown)
VH: EVQLVESGGGLVQPGGSLRLSCAASGFTFEHYSMNWVRQAPGKGLEWVSYISSSSSYIDYADSVKGRFTISRDNAKNSLYLQMNSLRAEDTAVYYCARDLTSMQSRDYYYYGMDVWGQGTTVTVSS
VL: DIQMTQSPSSVSASVGDRVTITCRASQGISSWLAWYQQKPGKAPKLLIYAASSLQSGVPSRFSGSGSGTDFTLTISSLQPEDFATYYCQQVPIFPYTFGGGTKVEIK
hKLK5 IC50 (protease inhibition) [4]: 1.71 nM
hKLK5 IC90 (protease inhibition) [4]: 15 nM
mKLK5 IC50 (protease inhibition) [5]: 4.97 nM
mKLK5 IC90 (protease inhibition) [5]: 40.1 nM
Kd [6]: 0.32 nM

B15: KLK5-L1-Ab5 (antibody, V domains shown)
VH: B14 VH with S102D, M103R
VL: B14 VL
notes: also called KLK-L1-Ab5
mKLK5 IC50 (protease inhibition) [5]: 4.1 nM
mKLK5 IC90 (protease inhibition) [5]: 25 nM
Kd [6]: 0.26 nM

B16: KLK7-L3-Ab2 (antibody, V domains shown)
VH: QVQLVQSGAEVKKPGSSVKVSCKASGGTFNNYAISWVRQAPGQGLEWMGAIIPIFGVANYAQKFQGRVTITADESTSTAYMELSSLRSEDTAVYYCARGAPNYYGAQSSRGIAFDIWGQGTMVTVSS
VL: B14 VL with Q89V, V91A, P92N, I93A, T97K
Kd [1]: 0.125 nM
hKLK7 IC50 (protease inhibition) [2]: 0.802 nM
hKLK7 IC90 (protease inhibition) [2]: 4.43 nM
mKLK7 IC50 (protease inhibition) [3]: 2.68 nM
mKLK7 IC90 (protease inhibition) [3]: 11.5 nM

B17: KLK5-L1-Ab2 (antibody, V domains shown)
VH: B14 VH with E30G, H31S, S33A, Y57F
VL: B14 VL
hKLK5 IC50 (protease inhibition) [4]: 2.26 nM
hKLK5 IC90 (protease inhibition) [4]: 13.3 nM
mKLK5 IC50 (protease inhibition) [5]: 4.43 nM
mKLK5 IC90 (protease inhibition) [5]: 34.6 nM
Kd [6]: 0.41 nM

B18: KLK5-L3-Ab7 (antibody, V domains shown)
VH: QVQLVQSGAEVRKPGSSVKVSCKASGGTFSNYHISWVRQAPGQGLEWMGGIFPTFGTANYAQKFQGRVTITADESTSTAYMELSSLRSEDTAVYYCARGSASGYYDRSYYYDGMDVWGQGTTVTVSS
VL: B14 VL with P92I, I93S
mKLK5 IC50 (protease inhibition) [5]: 2.17 nM
mKLK5 IC90 (protease inhibition) [5]: 10.7 nM
Kd [6]: 1.4 nM

B19: KLK5-L3-Ab6 (antibody, V domains shown)
VH: B18 VH with R12K, N31G, H33V, T54I, F55S, T57Y, N59V, G99A, D112Y
VL: B14 VL with P92S, I93S, Y96Q
mKLK5 IC50 (protease inhibition) [5]: 12.7 nM
mKLK5 IC90 (protease inhibition) [5]: 80.8 nM
Kd [6]: 12 nM

B20: KLK7-L3-Ab3 (antibody, V domains shown)
VH: B16 VH with N30S, N31S, Y32H, S35T, A50G, V57F, A106S, Q107A
VL: B14 VL with Q89V, V91A, P92N, I93A, T97S
Kd [1]: 0.217 nM
hKLK7 IC50 (protease inhibition) [2]: 1.4 nM
hKLK7 IC90 (protease inhibition) [2]: 8.25 nM
mKLK7 IC50 (protease inhibition) [3]: 3.34 nM
mKLK7 IC90 (protease inhibition) [3]: 11.4 nM

B21: KLK7-L5-Ab1 (antibody, V domains shown)
VH: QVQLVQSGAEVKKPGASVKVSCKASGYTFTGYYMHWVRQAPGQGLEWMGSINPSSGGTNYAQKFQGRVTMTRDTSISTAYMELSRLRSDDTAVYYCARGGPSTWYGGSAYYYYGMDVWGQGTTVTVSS
VL: EIVLTQSPGTLSLSPGERATLSCRASQSVSSDYLAWYQQKPGQAPRLLIYGASSRATGIPDRFSGSGSGTDFTLTISRLEPEDFAVYYCQQYANLWTFGGGTKVEIK
Kd [1]: 4.86 nM
mKLK7 IC50 (protease inhibition) [3]: 15 nM
mKLK7 IC90 (protease inhibition) [3]: 67.3 nM

B22: KLK7-L5-Ab2 (antibody, V domains shown)
VH: QVQLVQSGAEVKKPGASVKVSCKASGYTFAGYDMHWVRQAPGQGLEWMGSINPTSGRTNYAQKFQGRVTMTRDTSISTAYMELSRLRSDDTAVYYCARGGPSTWYGGSAYTYYGADVWGQGTTVTVSS
VL: B21 VL with N94P
Kd [1]: 0.0253 nM
mKLK7 IC50 (protease inhibition) [3]: 1.48 nM
mKLK7 IC90 (protease inhibition) [3]: 26.5 nM
